Source: US20120135472

Biological target: T1, small fragment of Nanoarchaeum equitans DNA polymerase (Neq S)
T1 chain: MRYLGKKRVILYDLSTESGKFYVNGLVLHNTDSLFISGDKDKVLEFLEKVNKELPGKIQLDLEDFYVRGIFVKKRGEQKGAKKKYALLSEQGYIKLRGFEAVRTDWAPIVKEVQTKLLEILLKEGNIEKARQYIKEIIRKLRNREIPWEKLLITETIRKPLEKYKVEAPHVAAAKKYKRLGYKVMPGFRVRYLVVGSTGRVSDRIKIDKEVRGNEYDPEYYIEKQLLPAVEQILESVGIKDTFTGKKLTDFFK

B1: large fragment of Nanoarchaeum equitans DNA polymerase (Neq L) (protein)
chain: MLHQLPTMVVEEKAVKEEEGYSVLKCYWINIENTPLDEVILIGKDENNRACEVIIPYKWYFYFEGDIKDLEEFANNKKIKIEYTKEQKKYIEKPKDVYKVYVLHKHYPILKEFIKEKGYKKYETDINVYRKFLIDKGIEPFEWFEVEGKILLSTSNKVRIKAQSIKRLYEKTKPSVLAFDIEVYSEAFPNPEKDKIISIALYGDNYEGVISYKGEPTIKVNTEYELIEKFVEIIESLKPDIIVTYNGDNFDIDFLVKRASLYNIRLPIKLVNKKEPTYNFRESAHVDLYKTITTIYKTQLSTQTYSLNEVAKEILGEEKIYDYENMLYDWAIGNYNKVFEYNLKDAELTYKLFKYYENDLLELARLVNQPLFDVSRFSYSNIVEWYLIKKSRKYNEIVPNKPKMEEVERRKLNTYAGAFVYEPKPGLYENLAVLDFASLYPSIILEHNVSPGTIYCEHDDCKQNGVEAIINNEKKYVWFCKKVKGFIPTVLEHLYTKRLELKRKLKELDRDSEEYKIINAKQAVLKIIINATYGYMGFPNARWYCIDCAAAVAAWGRKYINYILKRAEEEGFKVIYGDSIMDTEIEVIENGIKKKEKLSDLFNKYYAGFQIGEKHYAFPPDLYVYDGERWVKVYSIIKHETETDLYEINGITLSANHLVLSKGNWVKAKEYENKNN
  activity of DNA polymerase (3H-dTTP incorporation, relative to 20 pmoles of Neq P = 100%): The activity of DNA polymerase of the solution was very low after the protein trans-splicing of Neq L and Neq S at 60° C., but was maximized at 95 °C
